Tests used:
[1] = target: T1, sTNFR2, monomeric extracellular domains of TNFR2 obtained from etanercept (Homo sapiens, UniProt P20333); experiment: SPR; antibody captured (~400 RU) on anti-human IgG Fc on a CM5 chip, sTNFR2 as analyte in twofold dilution series; PBS with 0.005% Tween 20, pH 7.4, 25 °C; 1:1 global kinetics fit; settings: both partners purified
T1 construct: extracellular domains of TNFR2 as in etanercept; also called TNFR2 ECD; source: from etanercept (Pfizer): IdeS digestion, reduction with 2-mercaptoethylamine, purified (Protein A flow-through, SEC); not shown: Fc (human IgG1, of etanercept), C-terminal, cleaved

[2] = target: T2, tumor necrosis factor-alpha (TNFα) (UniProt P01375); experiment: SPR; TNFα immobilised on a CM5 chip by amine coupling (140 RU); antibodies 10 nM or 100 nM flowed; HBS-EP+, 25 °C; settings: both partners purified
T2 construct: tumor necrosis factor-alpha; source: bought: Peprotech #AF-200-01A (named for the reporter assay)
T2 sequence (P01375 77-233): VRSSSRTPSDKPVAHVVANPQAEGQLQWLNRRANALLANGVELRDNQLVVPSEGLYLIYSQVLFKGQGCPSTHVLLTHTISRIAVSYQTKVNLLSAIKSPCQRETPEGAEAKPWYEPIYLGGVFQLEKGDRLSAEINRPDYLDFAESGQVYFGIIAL

Kd [1]	Binder	binding result [2]	further results
0.42 nM	TR96 chimeric conventional IgG (antibody, V domains shown) VH: EVQLQQSGAELVKPGASVKLSCTPSGFNIKDTYMHWVKQRPEQGLEWIGRIDPANGYTEYDPKFQDKATITADTSSNTAYLQLSSLTSEDTAVYYCADTQLYYWGQGTTLTVSS VL: QIVLTQSPAIMSASLGERVTMTCTASSSVSSTYLHWYQQKPGSSPKLWIYSTSNLASGVPARFSGSGSGTSYSLTISNMEAEDAATYYCHQYHRSPLTFGAGTKLELK	–	koff [1]: 0.00024 s⁻¹; kon [1]: 580000 M⁻¹ s⁻¹
–	TR96 cIgG (chimeric, human IgG1/kappa) (antibody, V domains shown) VH: EVQLQQSGAELVKPGASVKLSCTPSGFNIKDTYMHWVKQRPEQGLEWIGRIDPANGYTEYDPKFQDKATITADTSSNTAYLQLSSLTSEDTAVYYCADTQLYYWGQGTTLTVSS VL: QIVLTQSPAIMSASLGERVTMTCTASSSVSSTYLHWYQQKPGSSPKLWIYSTSNLASGVPARFSGSGSGTSYSLTISNMEAEDAATYYCHQYHRSPLTFGAGTKLELK	no binding (tested: 10 nM or 100 nM)	–
–	TR94 cIgG (chimeric, human IgG1/kappa) (antibody, V domains shown) VH: QVQLQQSGAELARPGTSVKLSCKASGYTFTSYWMQWVKQTPGQGLEWIGAIYPGDGDSRYIQKFKGKATLTADKSSSTAYMQLSSLASEDSAVYYCARDGNYYAMDYWGQGTSVTVSS VL: QIVLTQSPAIMSASLGERVTITCTASSSVSSTYLHWYQQKPGSSPKLWIYSTSNLASGVPARFSGSGSGTSYSLTISSMEAEDAATYYCHQYHRSPPTFGAGTKLELK	no binding (tested: 10 nM or 100 nM)	–
5.6 nM	TR109 chimeric conventional IgG (antibody, V domains shown) VH: QVQLKESGPGLVAPSQSLSITCTVSGFSLTVYGVNWVRQPPGKGLEWLGMIWGDGSTAYNSALKSRLTITKDNSKTQVFLKMNSLQTDDTARYYCARDGRRYALDYWGQGTSVTVSS VL: DIVLTQSPTSLAVSLGQRATISCRASESVDSYGDSFLHWYQQKPGQPPILLIYRASNLDSGIPARFSGSGSRTDFTLTINPVEADDVATYYCQQSNEDPYTFGGGTKLEIK	–	–
–	TR109 cIgG (chimeric, human IgG1/kappa) (antibody, V domains shown) VH: QVQLKESGPGLVAPSQSLSITCTVSGFSLTVYGVNWVRQPPGKGLEWLGMIWGDGSTAYNSALKSRLTITKDNSKTQVFLKMNSLQTDDTARYYCARDGRRYALDYWGQGTSVTVSS VL: DIVLTQSPTSLAVSLGQRATISCRASESVDSYGDSFLHWYQQKPGQPPILLIYRASNLDSGIPARFSGSGSRTDFTLTINPVEADDVATYYCQQSNEDPYTFGGGTKLEIK	no binding (tested: 10 nM or 100 nM)	–
4 nM	TR92 chimeric conventional IgG (antibody, V domains shown) VH: KVQLQQSGAELVKPGASVKLSCKASGYTFTESIIHWVKQRSGQGLEWIGWFYPGSDNINYNEKFKDKATLTADKSSSTVYMELTRLTSEDSAVYFCASHEGPYVYFDYWGQGTTLTVSS VL: DIVMTQSHKFMSTSVGDRVSITCKASQDVSTAVAWYQQKPGQSPKLLIYWTSTRHTGVPDRFTGSGSGTDYTLTISSVQAEDLALYYCQHHYSTPYTFGGGTKLEIQ	–	–
–	TR92 cIgG (chimeric, human IgG1/kappa) (antibody, V domains shown) VH: KVQLQQSGAELVKPGASVKLSCKASGYTFTESIIHWVKQRSGQGLEWIGWFYPGSDNINYNEKFKDKATLTADKSSSTVYMELTRLTSEDSAVYFCASHEGPYVYFDYWGQGTTLTVSS VL: DIVMTQSHKFMSTSVGDRVSITCKASQDVSTAVAWYQQKPGQSPKLLIYWTSTRHTGVPDRFTGSGSGTDYTLTISSVQAEDLALYYCQHHYSTPYTFGGGTKLEIQ	no binding (tested: 10 nM or 100 nM)	–
19 nM	TR45 chimeric conventional IgG (antibody, V domains shown) VH: EVQLQQSGPEMEKPGASVKISCKASGYSFTGYNMNWVKQSIGKSLEWIGKIDPYYGGTDYNLRFKDKATLTVDKSSSTAYMHLSRLTSEDSAVYYCAREPNYGSNDWYFDVWGAGTTVTVSS VL: DIQVTQTTSSLSASLGDRVTISCRASQDIDNYLNWYQQRPDGTVKLLIYYTSILHSGVPSRFSGSGSRTDFSLTISSLEEEDFATYFCQQGNTLPWTFGGGTKLEFK	–	–
–	TR45 cIgG (chimeric, human IgG1/kappa) (antibody, V domains shown) VH: EVQLQQSGPEMEKPGASVKISCKASGYSFTGYNMNWVKQSIGKSLEWIGKIDPYYGGTDYNLRFKDKATLTVDKSSSTAYMHLSRLTSEDSAVYYCAREPNYGSNDWYFDVWGAGTTVTVSS VL: DIQVTQTTSSLSASLGDRVTISCRASQDIDNYLNWYQQRPDGTVKLLIYYTSILHSGVPSRFSGSGSRTDFSLTISSLEEEDFATYFCQQGNTLPWTFGGGTKLEFK	no binding (tested: 10 nM or 100 nM)	–
